{"source": "paper doi:10.1101/2023.01.18.524551", "about": "(bioRxiv, 2023)", "binders": {"B1": {"name": "His6-SUMOstar-C3a (recombinant human C3a, residues 1-77) (ligand)", "chain": "not shown"}}, "molecular_target": "T1, C3aR R161A (human, UniProt Q16581 1-482, R161^ECL2A)", "T1 sequence": "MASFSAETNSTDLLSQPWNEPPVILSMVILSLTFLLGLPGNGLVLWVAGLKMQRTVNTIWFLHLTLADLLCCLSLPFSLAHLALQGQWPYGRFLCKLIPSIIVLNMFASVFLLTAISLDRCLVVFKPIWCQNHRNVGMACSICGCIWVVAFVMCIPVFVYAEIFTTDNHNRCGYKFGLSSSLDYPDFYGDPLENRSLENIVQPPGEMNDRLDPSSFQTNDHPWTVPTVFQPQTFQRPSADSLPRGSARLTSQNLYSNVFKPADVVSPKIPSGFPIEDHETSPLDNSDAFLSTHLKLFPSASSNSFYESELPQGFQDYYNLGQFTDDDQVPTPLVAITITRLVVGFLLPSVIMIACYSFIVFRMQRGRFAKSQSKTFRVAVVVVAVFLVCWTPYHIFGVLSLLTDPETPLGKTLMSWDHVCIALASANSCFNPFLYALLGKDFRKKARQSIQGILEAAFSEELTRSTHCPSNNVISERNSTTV", "test": "cell-based or functional assay"}
{"binder": "B1", "values": [{"measurement": "decrease of the potency of C3a against the wild type (GloSensor cAMP assay)", "value": "> 100", "unit": "fold"}]}
